Assay [1] addresses Antigen 1 (Consensus B, biotinylated peptide from gp41 epitope region II of HIV1 subtype B) (HIV1 subtype B (consensus)). The assay is described as follows: bridge ELISA, Bi-Antigen 1 + Dig-Antigen 3. In general terms: An ELISA detects its analyte on a solid surface through an enzyme-linked reagent.
The target in assay [2] is Antigen 2 (Consensus D, biotinylated peptide from gp41 epitope region II of HIV1 subtype D) (HIV1 subtype D (consensus)). The assay is described as follows: bridge ELISA, Bi-Antigen 2 + Dig-Antigen 4.

For Negative control, the signal in assay [1] worked out at 0.05 U; in assay [2] it was 0.03 U.

The record behind these values is patent publication US20030054336A1.
